In PMC9034062, “Phospholipids alter activity and stability of mitochondrial membrane-bound ubiquitin ligase MARCH5” (Life Science Alliance, 2022):

Molecular target: the molecule itself
Experiment: cross-linking; BS3 cross-linker added to 19.4 uM MARCH5 in 50 mM Hepes pH 7.7, 100 mM NaCl, 5% glycerol, 0.1 mM TCEP, 0.001% LMNG; without lipid (control) and with cardiolipin at 1:10 molar ratio of protein to lipid; samples at 0, 15, 30 and 60 min; SDS-PAGE

B1: MARCH5 (enzyme, human, UniProt Q9NX47 1-278, looked up)
chain: MPDQALQQMLDRSCWVCFATDEDDRTAEWVRPCRCRGSTKWVHQACLQRWVDEKQRGNSTARVACPQCNAEYLIVFPKLGPVVYVLDLADRLISKACPFAAAGIMVGSIYWTAVTYGAVTVMQVVGHKEGLDVMERADPLFLLIGLPTIPVMLILGKMIRWEDYVLRLWRKYSNKLQILNSIFPGIGCPVPRIPAEANPLADHVSATRILCGALVFPTIATIVGKLMFSSVNSNLQRTILGGIAFVAIKGAFKVYFKQQQYLRQAHRKILNYPEQEEA
notes: human MARCH5, cDNA codon-optimised for yeast (GenScript); Integral membrane protein, kept in the detergent LMNG; By the printed primers the TEV site is ENLYFQ/SQF, so ENLYFQ probably stays at the C-terminus after cleavage (surmised); also called M5; source: S. cerevisiae PAP1500, purified (DDM solubilisation, Ni resin with exchange to LMNG, TEV cleavage, reverse IMAC); not shown: yEGFP, …
B1: binds.
